Laboratory results: patent US8993248B2, “Truncated human vitamin D binding protein and mutation and fusion thereof and related materials and methods of use” (Abbott Laboratories, priority 2011, dated 2015)

Legend:
[1] = biological target: T1, yeast surface displayed hDBP3 (Homo sapiens, UniProt P02774); test: Inhibition assay of free vitamin Ds on yeast surface displayed hDBP3; assay type: binding; conditions: for Ki: free vitamin D as inhibitor, yeast surface displayed hDBP3
T1 construct: made in house; host or cells: yeast (surface display, pYD vector)
T1 sequence (P02774 17-227): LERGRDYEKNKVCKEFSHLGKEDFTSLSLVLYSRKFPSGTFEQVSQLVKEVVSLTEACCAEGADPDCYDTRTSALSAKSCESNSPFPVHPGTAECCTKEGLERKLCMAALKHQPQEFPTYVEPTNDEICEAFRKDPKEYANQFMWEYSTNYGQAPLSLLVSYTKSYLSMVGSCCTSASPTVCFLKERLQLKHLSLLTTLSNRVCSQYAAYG
Method: Binding affinity of the hDBP3 truncate to vitamin D2, vitamin D3, 25-hydroxy vitamin D2, and 25-hydroxy vitamin D3 was determined.

[2] = biological target: T2, hDBP4-hFc 3-6 protein coated on microparticles (Homo sapiens, UniProt P02774, S92A/S95A); test: Effect of displacement agent on microparticle DBP assay on the Abbott ARCHITECT instrument; assay type: binding; conditions: ANSA-present versus ANSA-free; FIG. 16
T2 construct: made in house
T2 sequence (P02774 with tags, fused parts or gaps S92A/S95A): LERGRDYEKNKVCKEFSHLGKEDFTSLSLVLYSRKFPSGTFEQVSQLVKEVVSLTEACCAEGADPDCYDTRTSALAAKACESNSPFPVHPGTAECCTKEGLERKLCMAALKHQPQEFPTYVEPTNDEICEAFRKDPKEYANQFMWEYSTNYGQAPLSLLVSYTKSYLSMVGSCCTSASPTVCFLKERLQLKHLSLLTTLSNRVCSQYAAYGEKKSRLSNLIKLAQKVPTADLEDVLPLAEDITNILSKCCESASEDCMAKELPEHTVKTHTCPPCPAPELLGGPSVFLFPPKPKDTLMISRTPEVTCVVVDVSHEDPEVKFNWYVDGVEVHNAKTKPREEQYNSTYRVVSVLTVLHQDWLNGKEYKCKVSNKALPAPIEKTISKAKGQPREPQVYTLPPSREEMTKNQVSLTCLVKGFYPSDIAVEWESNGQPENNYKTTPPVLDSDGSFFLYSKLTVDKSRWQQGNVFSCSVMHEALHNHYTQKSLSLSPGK
Method: For this study hDBP4-hFc 3-6 protein was coated on microparticles and binding was assessed on the Abbott ARCHITECT instrument to study the effect of adding a non-competitive displacement agent comprising 8-anilino-1-napthalenesulfonic acid ammonium salt (ANSA). ANSA separates any vitamin D metabolite in the sample from vitamin D binding protein to which the vitamin D metabolite is bound, was investigated. Microparticle diluent was used to remove ANSA in one condition (ANSA-free) but not the other (ANSA-present).

[3] = Reactivity of hDBP-hFc fusion proteins to 25-hydroxy vitamin D3-3-biotin (ELISA); assay type: binding; conditions: fusion protein produced as a dimer by HEK 293F transient transfection
Text: The hDBP3 open reading frame (ORF) was amplified by PCR and linked to hFc, which contained a short hinge region with the first six amino acids deleted (to increase secretion), through SOEing (splicing by overlapping extension) PCR. The fusion protein ORF was cloned in pBOS vector (acquired from Abbott Bioresearch Center, Worcester, Mass.) through Nru I/Not I restriction digestion. Secretion of the fusion protein was directed by IgG heavy chain secretion signal peptide. The fusion protein was produced as a dimer by human embryonic kidney (HEK) 293F transient transfection. However, its reactivity to 25-hydroxy vitamin D3-3-biotin was weak.
The hDBP4 ORF was amplified from the pYD vector and linked to hFc through SOEing PCR. The fusion protein ORF was cloned in pBOS vector through Nru I/Not I restriction digestion. Secretion of the fusion protein was directed by IgG heavy chain secretion signal peptide. The fusion protein was produced as a dimer by HEK 293F transient transfection. Its reactivity to 25-hydroxy vitamin D3-3-biotin was confirmed by ELISA.
The hDBP3 mutant 3-6 was amplified from a pYD vector. The hFc with 56 amino acids from hDBP4 on its N-terminus was amplified from pBOS hDBP4-hFc. The two fragments were linked together through SOEing PCR. The resulting DNA vector was named pBOS hDBP4-hFc 3-6, which contained the two point mutations (S76A, S79A). […]

[4] = Storage stability of the protein by SDS-PAGE; assay type: physicochemical; conditions: protein expressed from HEK293 cells; room temperature, 2-8° C. and 37° C.; day 0, 3, 5, 7
Method: The hDBP4-hFc 3-6 protein expressed from HEK293 cells was tested for stability. hDBP4-hFc 3-6 protein (about 100 μl of 0.5 mg/ml) was stored at room temperature, 2-8° C., and 37° C. A sample of about 20 μl of hDBP4-hFc 3-6 was taken at day 0, 3, 5, and 7, mixed with 20 μl reduced 2× Laemmli sample buffer, and stored at 2-8° C. until SDS-PAGE gel analysis.

G-actin = conditions: read-out: Binding affinity for G-actin; cited from earlier work
[5] = Ligand titration of yeast surface displayed hDBP truncates; assay type: binding, human; conditions: for EC50: yeast surface displayed hDBP GC1S constructs, ligand 25-OH vitamin D3-3-biotin, read-out: Ag50 (antigen concentration at 50% of maximal binding signal); for Binding to the ligand 25-hydroxy vitamin D3-3-biotin, in words: compared to full-length hDBP
Method: A total of five hDBP truncates and the full-length hDBP (Table I) were cloned into pYD yeast display vector (Invitrogen) by polymerase chain reaction (PCR) and Nco I/Xho I restriction digestion.
Binding affinity to 25-hydroxy vitamin D3-3-biotin of each construct was measured by ligand titration (Table II). The Ag50 is the value (antigen concentration) generated at 50% of maximal binding signal, thus translating into the highest affinity. This testing was performed similar to that detailed in Friguet et al., J. Immunolog. Methods, 77:305-319 (1985).

[6] = Screen of the yeast-displayed hDBP3 mutation library (MACS/FACS, equilibrium competition staining); assay type: binding, human; conditions: relative to yeast surface-displayed hDBP3
Text: The library was screened by one round of Magnetic Activated Cell Sorting (MACS) and two rounds of Fluorescence Activated Cell Sorting (FACS) with equilibrium competition staining. […] Mutant 3-6 contained two point mutations (S76A, S79A). Plasmid DNA of this clone was isolated.

C=C1CC[C@H](O)C/C1=C/C=C1\CCC[C@]2(C)[C@@H]([C@H](C)/C=C/[C@H](C)C(C)(C)O)CC[C@@H]12 [25-hydroxy Vitamin D2]
Ki [1]: 6.4 nM

C=C1CC[C@H](O)C/C1=C/C=C1\CCC[C@]2(C)[C@@H]([C@H](C)CCCC(C)(C)O)CC[C@@H]12 [25-hydroxy Vitamin D3]
Ki [1]: 3.8 nM

N.O=S(=O)(O)c1cccc2cccc(Nc3ccccc3)c12 [ANSA, 8-anilino-1-napthalenesulfonic acid ammonium salt]
Effect on binding of vitamin D and tracer to DBP on the solid phase [2]: disturbed the binding of vitamin D from the sample and tracer to the DBP on the solid phase

C=C1CC[C@H](O)C/C1=C/C=C1\CCC[C@]2(C)[C@@H]([C@H](C)/C=C/[C@H](C)C(C)C)CC[C@@H]12 [Vitamin D2]
Ki [1]: 1390 nM

C=C1CC[C@H](O)C/C1=C/C=C1\CCC[C@]2(C)[C@@H]([C@H](C)CCCC(C)C)CC[C@@H]12 [Vitamin D3]
Ki [1]: 2970 nM

hDBP4-hFc 3-6: hDBP3 mutant 3-6 (S76A, S79A) plus 56 amino acids of hDBP4 fused to hFc, SEQ ID NO:10; dimer
Reactivity to 25-hydroxy vitamin D3-3-biotin [3]: higher than wild-type fusion protein | Degradation on storage (SDS-PAGE 4-20%) [4]: no degradation

B1: DBP: Naturally occurring triple-domain, monomeric serum glycoprotein that binds and transports vitamin D (protein, UniProt P02774 17-474, looked up)
Vitamin D-binding protein: LERGRDYEKNKVCKEFSHLGKEDFTSLSLVLYSRKFPSGTFEQVSQLVKEVVSLTEACCAEGADPDCYDTRTSALSAKSCESNSPFPVHPGTAECCTKEGLERKLCMAALKHQPQEFPTYVEPTNDEICEAFRKDPKEYANQFMWEYSTNYGQAPLSLLVSYTKSYLSMVGSCCTSASPTVCFLKERLQLKHLSLLTTLSNRVCSQYAAYGEKKSRLSNLIKLAQKVPTADLEDVLPLAEDITNILSKCCESASEDCMAKELPEHTVKLCDNLSTKNSKFEDCCQEKTAMDVFVCTYFMPAAQLPELPDVELPTNKDVCDPGNTKVMDKYTFELSRRTHLPEVFLSKVLEPTLKSLGECCDVEDSTTCFNAKGPLLKKELSSFIDKGQELCADYSENTFTEYKKKLAERLKAKLPDATPTELAKLVNKHSDFASNCCSINSPPLYCDSEIDAELKNIL
Kd (G-actin): ~10 nM

B2: hDBP0 (Full-Length): Full-length human vitamin D binding protein, allele GC1S; domains I, II, III of 191, 187, 80 amino acids (protein, UniProt P02774 17-474, looked up)
Vitamin D-binding protein: LERGRDYEKNKVCKEFSHLGKEDFTSLSLVLYSRKFPSGTFEQVSQLVKEVVSLTEACCAEGADPDCYDTRTSALSAKSCESNSPFPVHPGTAECCTKEGLERKLCMAALKHQPQEFPTYVEPTNDEICEAFRKDPKEYANQFMWEYSTNYGQAPLSLLVSYTKSYLSMVGSCCTSASPTVCFLKERLQLKHLSLLTTLSNRVCSQYAAYGEKKSRLSNLIKLAQKVPTADLEDVLPLAEDITNILSKCCESASEDCMAKELPEHTVKLCDNLSTKNSKFEDCCQEKTAMDVFVCTYFMPAAQLPELPDVELPTNKDVCDPGNTKVMDKYTFELSRRTHLPEVFLSKVLEPTLKSLGECCDVEDSTTCFNAKGPLLKKELSSFIDKGQELCADYSENTFTEYKKKLAERLKAKLPDATPTELAKLVNKHSDFASNCCSINSPPLYCDSEIDAELKNIL
modifications: allele GC1S
notes: domains I, II, III of 191, 187, 80 amino acids
EC50 [5]: 65 nM

B3: hDBP3: hDBP truncate: domain I plus first α-helix of domain II (amino acids 1-211), SEQ ID NO:12 (protein, listed as Homo sapiens)
chain: LERGRDYEKNKVCKEFSHLGKEDFTSLSLVLYSRKFPSGTFEQVSQLVKEVVSLTEACCAEGADPDCYDTRTSALSAKSCESNSPFPVHPGTAECCTKEGLERKLCMAALKHQPQEFPTYVEPTNDEICEAFRKDPKEYANQFMWEYSTNYGQAPLSLLVSYTKSYLSMVGSCCTSASPTVCFLKERLQLKHLSLLTTLSNRVCSQYAAYG
Binding to the ligand 25-hydroxy vitamin D3-3-biotin, in words [5]: bound to the ligand with similar affinity to the full-length hDBP | EC50 [5]: 83 nM | Binding preference among vitamin D2, vitamin D3, 25-hydroxy vitamin D2 and 25-hydroxy vitamin D3 [1]: preferentially bound to hydroxylated vitamin D213

B4: 3-6: hDBP3 clone with two point mutations (S76A, S79A), SEQ ID NO:2 (protein, listed as Homo sapiens)
chain: LERGRDYEKNKVCKEFSHLGKEDFTSLSLVLYSRKFPSGTFEQVSQLVKEVVSLTEACCAEGADPDCYDTRTSALAAKACESNSPFPVHPGTAECCTKEGLERKLCMAALKHQPQEFPTYVEPTNDEICEAFRKDPKEYANQFMWEYSTNYGQAPLSLLVSYTKSYLSMVGSCCTSASPTVCFLKERLQLKHLSLLTTLSNRVCSQYAAYG
Increase in affinity to 25-hydroxy vitamin D3-3-biotin [6]: six-fold increase in affinity

B5: hDBP4: hDBP truncate: domain I plus about half of domain II, 56 amino acids longer than hDBP3, SEQ ID NO:14 (protein, listed as Homo sapiens)
chain: LERGRDYEKNKVCKEFSHLGKEDFTSLSLVLYSRKFPSGTFEQVSQLVKEVVSLTEACCAEGADPDCYDTRTSALSAKSCESNSPFPVHPGTAECCTKEGLERKLCMAALKHQPQEFPTYVEPTNDEICEAFRKDPKEYANQFMWEYSTNYGQAPLSLLVSYTKSYLSMVGSCCTSASPTVCFLKERLQLKHLSLLTTLSNRVCSQYAAYGEKKSRLSNLIKLAQKVPTADLEDVLPLAEDITNILSKCCESASEDCMAKELPEHTV
Binding to the ligand 25-hydroxy vitamin D3-3-biotin, in words [5]: retains binding affinity | EC50 [5]: 95 nM
